The supplement of paper PMC9233669
This sample holds only a part of the variants without activity.

How the values were obtained:
biotinyl-Trp-oxazolone = experiment: self-aminoacylation, catalytic enhancement (BWO) (fold over background); higher = more active; k-Seq, kA / k0A0; sequences stand for … in GGGAAUGGAUCCACAUCUACGAAUUC…UUCACUGCAGACUUGACGAAGCUG
Summary of the method: (§1)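 Mutagenized RNA pools with a 21-nt variable region (0.43 μM) were reacted with each biotinyl-aminoacyl-oxazolone at 2–1250 μM for 90 minutes at room temperature, in 50 μL HEPES/NaCl/KCl/MgCl2/CaCl2 buffer containing 5% acetonitrile at pH 6.9–7.0. RNA captured on streptavidin was quantified by triplicate qPCR and by Illumina sequencing. The fraction reacted for each sequence was fit to a pseudo-first-order model with bootstrapping, and catalytic enhancement is the median kA divided by the uncatalyzed rate, taken as the low-activity peak of a bimodal Gaussian fit.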

biotinyl-Phe-oxazolone = experiment: self-aminoacylation, catalytic enhancement (BFO) (fold over background); higher = more active; k-Seq, kA / k0A0; sequences stand for … in GGGAAUGGAUCCACAUCUACGAAUUC…UUCACUGCAGACUUGACGAAGCUG
Summary of the method: as §1

biotinyl-Leu-oxazolone = experiment: self-aminoacylation, catalytic enhancement (BLO) (fold over background); higher = more active; k-Seq, kA / k0A0; sequences stand for … in GGGAAUGGAUCCACAUCUACGAAUUC…UUCACUGCAGACUUGACGAAGCUG
Summary of the method: as §1

biotinyl-Ile-oxazolone = experiment: self-aminoacylation, catalytic enhancement (BIO) (fold over background); higher = more active; k-Seq, kA / k0A0; sequences stand for … in GGGAAUGGAUCCACAUCUACGAAUUC…UUCACUGCAGACUUGACGAAGCUG
Summary of the method: as §1

biotinyl-Met-oxazolone = experiment: self-aminoacylation, catalytic enhancement (BMO) (fold over background); higher = more active; k-Seq, kA / k0A0; sequences stand for … in GGGAAUGGAUCCACAUCUACGAAUUC…UUCACUGCAGACUUGACGAAGCUG
Summary of the method: as §1

biotinyl-Val-oxazolone = experiment: self-aminoacylation, catalytic enhancement (BVO) (fold over background); higher = more active; k-Seq, kA / k0A0; sequences stand for … in GGGAAUGGAUCCACAUCUACGAAUUC…UUCACUGCAGACUUGACGAAGCUG
Summary of the method: as §1

Row | Sequence | self-aminoacylation (biotinyl-Trp-oxazolone) | self-aminoacylation (biotinyl-Phe-oxazolone) | self-aminoacylation (biotinyl-Leu-oxazolone) | self-aminoacylation (biotinyl-Ile-oxazolone) | self-aminoacylation (biotinyl-Met-oxazolone) | self-aminoacylation (biotinyl-Val-oxazolone)
1 | AUUCACCAAGGUCAUCGCGUG [Fam2.2 aminoacylation ribozyme variant] | 12.6 | 132 | 20.7 | 7.86 | 16 | 8.42
2 | AUUCACCAAGGUCAUCGGCUG [Fam2.2 aminoacylation ribozyme variant] | 1.78 | 8.8 | 2.66 | 2.06 | 2.21 | 1.92
3 | AUUCACCAAGGUCAUCGGGUA [Fam2.2 aminoacylation ribozyme variant] | 4.89 | 22.5 | 3.23 | 3.77 | 2.43 | 3.04
4 | AUUCACCAAGGUCAUGGGGUG [Fam2.2 aminoacylation ribozyme variant] | 8.64 | 77.3 | 12.7 | 6.16 | 9.1 | 5.88
5 | AUUCACCAAGGUCGUCGGGUG [Fam2.2 aminoacylation ribozyme variant] | 2.29 | 12.9 | 3.05 | 2.09 | 2.2 | 2.58
6 | AUUCACCCAAGUCAUCGGGUG [Fam2.2 aminoacylation ribozyme variant] | 10.1 | 92.9 | 14.8 | 5.59 | 11 | 5.86
7 | AUUCACCCAGAUCAUCGGGUG [Fam2.2 aminoacylation ribozyme variant] | 1.84 | 7.26 | 2.43 | 1.85 | 1.82 | 2.26
8 | AUUCACCCAGGCCAUCGGGUG [Fam2.2 aminoacylation ribozyme variant] | 5.24 | 34.1 | 6.14 | 3.35 | 3.79 | 3.7
9 | AUUCACCCAGGUCACCGGGUG [Fam2.2 aminoacylation ribozyme variant] | 4.89 | 39.4 | 5.75 | 3.47 | 5.66 | 3.77
10 | AUUCACCCAGGUCAGCGGGUG [Fam2.2 aminoacylation ribozyme variant] | 4.34 | 18.4 | 5.61 | 2.93 | 3.76 | 2.73
11 | AUUCACCCAGGUCAUCGGGCG [Fam2.2 aminoacylation ribozyme variant] | 2.97 | 18 | 4.5 | 2.72 | 3.77 | 2.62
12 | AUUCACCCAGGUCAUCGGGUC [Fam2.2 aminoacylation ribozyme variant] | 1.39 | 6.42 | 1.92 | 1.14 | 1.5 | 1.88
13 | AUUCACCCAGGUCAUUGGGUG [Fam2.2 aminoacylation ribozyme variant] | 3.71 | 23.8 | 4.11 | 2.31 | 3.36 | 2.52
14 | AUUCACCCAGGUCCUCGGGUG [Fam2.2 aminoacylation ribozyme variant] | 5.85 | 35.5 | 6.67 | 3.22 | 5.45 | 3.89
15 | AUUCACCCAUGUCAUCGGGUG [Fam2.2 aminoacylation ribozyme variant] | 5.22 | 46.4 | 7.33 | 3.72 | 6.58 | 3.15
16 | AUUCACCGAGGUCACCGGGUG [Fam2.2 aminoacylation ribozyme variant] | 8.69 | 74.9 | 10.8 | 6.91 | 9.61 | 5.88
17 | AUUCACCGAGGUCAUCGCGUG [Fam2.2 aminoacylation ribozyme variant] | 14.8 | 117 | 19.1 | 7.64 | 16 | 9.71
18 | AUUCACCGAGGUCAUCGGGGG [Fam2.2 aminoacylation ribozyme variant] | 3.16 | 7.01 | 2.65 | 2.59 | 2.95 | 2.71
19 | AUUCACCGAGGUCAUCUGGUG [Fam2.2 aminoacylation ribozyme variant] | 3.61 | 34.6 | 5.72 | 2.39 | 4.31 | 2.69
20 | AUUCACCGAGGUCAUGGGGUG [Fam2.2 aminoacylation ribozyme variant] | 11.4 | 86.3 | 14.7 | 6.15 | 11.4 | 6.55
21 | AUUCACCGCGGUCAUCGGGUG [Fam2.2 aminoacylation ribozyme variant] | 7.69 | 59.7 | 8.56 | 4.65 | 7.49 | 5.04
22 | AUUCACCUAAGUCAGCGGGUG [Fam2.2 aminoacylation ribozyme variant] | 2.8 | 25 | 5.01 | 3.01 | 3.78 | 2.88
23 | AUUCACCUAAGUCUUCGGGUG [Fam2.2 aminoacylation ribozyme variant] | 5.42 | 33.4 | 6.66 | 3.49 | 4.98 | 3.85
24 | AUUCACCUACGCCAUCGGGUG [Fam2.2 aminoacylation ribozyme variant] | 3.52 | 21.9 | 4.34 | 2.1 | 3.6 | 2.11
25 | AUUCACCUACGUCAUCGAGUG [Fam2.2 aminoacylation ribozyme variant] | 3.77 | 12.5 | 4.08 | 2.45 | 4.25 | 2.71
26 | AUUCACCUACGUCAUCGGGCG [Fam2.2 aminoacylation ribozyme variant] | 2.75 | 16.3 | 3.26 | 2.62 | 3.42 | 2.97

Row | Sequence | self-aminoacylation (biotinyl-Trp-oxazolone) | self-aminoacylation (biotinyl-Phe-oxazolone) | self-aminoacylation (biotinyl-Leu-oxazolone) | self-aminoacylation (biotinyl-Ile-oxazolone) | self-aminoacylation (biotinyl-Met-oxazolone) | self-aminoacylation (biotinyl-Val-oxazolone)
27 | AUUCACCUACGUCAUCGUGUG [Fam2.2 aminoacylation ribozyme variant] | 0.425 | 0.74 | 0.86 | 0.632 | 0.602 | 0.818
28 | AUUCACCUACGUCAUGGGGUG [Fam2.2 aminoacylation ribozyme variant] | 1.67 | 11 | 2.62 | 1.79 | 2.5 | 2.01
29 | AUUCACCUACGUCCUCGGGUG [Fam2.2 aminoacylation ribozyme variant] | 4.21 | 33.2 | 7.17 | 2.7 | 4.71 | 2.12
30 | AUUCACCUACGUCUUCGGGUG [Fam2.2 aminoacylation ribozyme variant] | 3.34 | 24 | 4.28 | 2.44 | 3.36 | 2.81
31 | AUUCACCUAGAUCAUUGGGUG [Fam2.2 aminoacylation ribozyme variant] | 3.54 | 18 | 3.94 | 2.15 | 3.71 | 1.91
32 | AUUCACCUAGCUCAUCGGGUA [Fam2.2 aminoacylation ribozyme variant] | 2.53 | 11.2 | 2.41 | 2.08 | 2.03 | 2.54
33 | AUUCACCUAGGCCAACGGGUG [Fam2.2 aminoacylation ribozyme variant] | 3.02 | 14.5 | 4.01 | 2.23 | 2.61 | 2.04
34 | AUUCACCUAGGCCACCGGGUG [Fam2.2 aminoacylation ribozyme variant] | 4.16 | 13.6 | 6.51 | 3.83 | 5.04 | 3.27
35 | AUUCACCUAGGCCAGCGGGUG [Fam2.2 aminoacylation ribozyme variant] | 3.78 | 24.8 | 4.78 | 3.59 | 4.21 | 4.07
36 | AUUCACCUAGGCCAUCGGGCG [Fam2.2 aminoacylation ribozyme variant] | 5.38 | 15.5 | 3.11 | 2.65 | 3.01 | 3.17
37 | AUUCACCUAGGCCAUCGGUUG [Fam2.2 aminoacylation ribozyme variant] | 0.695 | 8.73 | 1.32 | 1.08 | 1.05 | 1.04
38 | AUUCACCUAGGGCACCGGGUG [Fam2.2 aminoacylation ribozyme variant] | 3.62 | 23.3 | 4.66 | 3.58 | 4.01 | 3.88
39 | AUUCACCUAGGGCAUCGGGUU [Fam2.2 aminoacylation ribozyme variant] | 2.78 | 5.04 | 2.37 | 1.91 | 2.08 | 2.01
40 | AUUCACCUAGGGCAUCGGUUG [Fam2.2 aminoacylation ribozyme variant] | 0.909 | 0.577 | 1.12 | 1.02 | 1.05 | 0.969
41 | AUUCACCUAGGGUAUCGGGUG [Fam2.2 aminoacylation ribozyme variant] | 6.31 | 50.9 | 8.63 | 3.84 | 6.75 | 3.99
42 | AUUCACCUAGGUAAUCGCGUG [Fam2.2 aminoacylation ribozyme variant] | 2.74 | 16.1 | 2.8 | 1.75 | 2.51 | 2.15
43 | AUUCACCUAGGUAAUCGGAUG [Fam2.2 aminoacylation ribozyme variant] | 0.594 | 0.527 | 0.546 | 0.61 | 0.585 | 0.524
44 | AUUCACCUAGGUAAUCGGCUG [Fam2.2 aminoacylation ribozyme variant] | 1.2 | 0.486 | 1.31 | 0.944 | 1.23 | 1.02
45 | AUUCACCUAGGUAAUCGGGUU [Fam2.2 aminoacylation ribozyme variant] | 0.977 | 0.331 | 1.17 | 0.997 | 1.09 | 1.16
46 | AUUCACCUAGGUAAUUGGGUG [Fam2.2 aminoacylation ribozyme variant] | 4.01 | 32.1 | 6.35 | 2.94 | 4.54 | 2.63
47 | AUUCACCUAGGUCAACGGGGG [Fam2.2 aminoacylation ribozyme variant] | 2.31 | 12.7 | 2.19 | 1.75 | 1.83 | 1.84
48 | AUUCACCUAGGUCAACGGUUG [Fam2.2 aminoacylation ribozyme variant] | 0.94 | 1.03 | 0.71 | 0.852 | 0.808 | 0.808
49 | AUUCACCUAGGUCAGCGGGCG [Fam2.2 aminoacylation ribozyme variant] | 4.44 | 27 | 7.99 | 5.22 | 5.27 | 5.42
50 | AUUCACCUAGGUCAGCGGGGG [Fam2.2 aminoacylation ribozyme variant] | 5.24 | 27.6 | 5.24 | 4.35 | 5.1 | 3.43
51 | AUUCACCUAGGUCAGGGGGUG [Fam2.2 aminoacylation ribozyme variant] | 2.55 | 13.9 | 3.4 | 1.78 | 2.67 | 1.8
